In patent US20230341394A1:

Target: CR3022 IgG antibody

Row | Substance | assay signal (TR-FRET ratio) (TR-FRET ratio)
1 | anti-IgG Nanobody (Chromotek Nano-Secondary alpaca anti-human IgG) (VHH) | 0.6
2 | anti-IgG antibody (Bethyl, A80-104A) | 0.25
